Data: paper PMC12007268

Legend:
[1] = target: trastuzumab-PFc29 (Q311R/M428L) (human); assay: SPR; Biacore T200; trastuzumab-Fc variants amine-coupled to a CM5 chip (about 1,000 RU); hFcRn-His 1,000 to 62.5 nM in 1x PBST pH 6.0, 30 µl/min; 1:1 binding model (trastuzumab: steady state); triplicate
[2] = target: trastuzumab-EML (L309E/Q311M/M428L) (human); assay: as above
[3] = target: trastuzumab-DHS (L309D/Q311H/N434S) (human); assay: as above
[4] = target: trastuzumab (wild-type Fc) (human); assay: as above
[5] = target: trastuzumab-YML (L309Y/Q311M/M428L) (human); assay: as above
[6] = target: FcRn immobilised on the FcRn affinity column Gen2 (Roche Diagnostics) (human) (UniProt P55899); assay: pH-gradient FcRn affinity column chromatography; FcRn affinity column Gen2 (Roche); pH gradient; retention time and pH of elution
[7] = target: human neonatal Fc receptor, His-tagged (hFcRn-His) (UniProt P55899); assay: BLI; Octet R8; hFcRn-His (40 µg/ml) held on NTA biosensors; trastuzumab-Fc variants in PBS pH 6.0 bound for 20 s, then dissociation in PBS pH 7.4 for 5 s; initial on-rate from the first 2 s, initial off-rate from the first 1 s; values relative to trastuzumab
[8] = target: human neonatal Fc receptor, His-tagged (hFcRn-His) (UniProt P55899); assay: BLI (Octet R8); conditions: PBS (composition not stated), PBS pH 6.0 for association, PBS pH 7.4 for dissociation; for Relative on-rate (initial association rate, normalised to trastuzumab) (fold relative to trastuzumab): pH 6.0; for Relative off-rate (initial dissociation rate, normalised to trastuzumab) (fold relative to trastuzumab): pH 7.4
[9] = target: human neonatal Fc receptor, His-tagged (hFcRn-His) (UniProt P55899); assay: SPR (Biacore T200); conditions: pH 6.0; 1× PBS (composition not stated); 1× PBST (pH 6.0)
[10] = target: human neonatal Fc receptor, His-tagged (hFcRn-His) (UniProt P55899)

pH at elution from the FcRn affinity column [6] [pH] | retention time on the pH-gradient FcRn affinity column [6] [min] | average of relative on- and off-rate [7] [fold] | relative initial off-rate at pH 7.4 (against trastuzumab) [7] [fold] | relative initial on-rate at pH 6.0 (against trastuzumab) [7] [fold] | Relative on-rate (initial association rate, normalised to trastuzumab) (fold relative to trastuzumab) [8] | Relative off-rate (initial dissociation rate, normalised to trastuzumab) (fold relative to trastuzumab) [8] | ka [9] [M⁻¹ s⁻¹] | kd [9] [s⁻¹] | Substance | further results
7.65 | 40.6 | 1 | 1 | 1 | – | – | – | – | trastuzumab (wild-type Fc) (antibody) | –
– | – | 1.82 | 1.83 | 1.81 | – | – | – | – | trastuzumab-DHS (L309D/Q311H/N434S) (antibody) | –
– | – | – | – | – | 1.81 | 1.83 | 35700 | 0.0645 | trastuzumab-DHS L309D;Q311H;N434S | –
7.97 | 48 | 1.48 | 1.5 | 1.47 | – | – | – | – | trastuzumab-EML (L309E/Q311M/M428L) (antibody) | –
– | – | – | – | – | 1.47 | 1.5 | 28500 | 0.0475 | trastuzumab-EML L309E;Q311M;M428L | –
8.05 | 50.2 | 1.77 | 1.6 | 1.94 | – | – | – | – | trastuzumab-PFc29 (Q311R/M428L) (antibody) | –

More lines, now with the values behind:

Substance | pH at elution from the FcRn affinity column [6] [pH] | retention time on the pH-gradient FcRn affinity column [6] [min] | average of relative on- and off-rate [7] [fold] | relative initial off-rate at pH 7.4 (against trastuzumab) [7] [fold] | relative initial on-rate at pH 6.0 (against trastuzumab) [7] [fold] | Relative on-rate (initial association rate, normalised to trastuzumab) (fold relative to trastuzumab) [8] | Relative off-rate (initial dissociation rate, normalised to trastuzumab) (fold relative to trastuzumab) [8] | ka [9] [M⁻¹ s⁻¹] | kd [9] [s⁻¹] | further results
human neonatal Fc receptor, His-tagged (hFcRn-His) (from UniProt P55899 24-297; P61769 21-119) | – | – | – | – | – | – | – | – | – | Kd [1]: 1810 nM; koff [1]: 0.0721 s⁻¹; kon [1]: 39800 M⁻¹ s⁻¹; Kd [2]: 1670 nM; koff [2]: 0.0475 s⁻¹; kon [2]: 28500 M⁻¹ s⁻¹; Kd [3]: 1800 nM; koff [3]: 0.0645 s⁻¹; kon [3]: 35700 M⁻¹ s⁻¹; Kd [4]: 4360 nM; Kd [5]: 878 nM; koff [5]: 0.0555 s⁻¹; kon [5]: 63200 M⁻¹ s⁻¹
trastuzumab (wild-type human IgG1 Fc) | – | – | – | – | – | 1 | 1 | – | – | –
trastuzumab-PFc29 Q311R;M428L | – | – | – | – | – | 1.94 | 1.6 | 39800 | 0.0721 | –
trastuzumab-YML (L309Y/Q311M/M428L) (antibody) | 8.09 | 51.2 | 1.92 | 1.74 | 2.1 | – | – | – | – | serum half-life t1/2 (terminal, beta-phase) in hFcRn transgenic mice (Tg276 hemizygous), single i.v. bolus 5 mg/kg, n = 3 [10]: 13.5 days
trastuzumab-YML L309Y;Q311M;M428L | – | – | – | – | – | 2.1 | 1.74 | 63200 | 0.0555 | –
